# Changes are numbered by the printed parent chain.
# B1: wild type (wt) cryptogein (ligand)
# chain: GTACTATQQTAAYKTLVSILSDASFNQCSTDSGYSMLTAKALPTTAQYKLMCASTACNTMIKKIVTLNPPNCDLTVPTSGLVLNVYSYANGFSNKCSSL
# modifications: fluorescein isothiocyanate (FITC) label, site not stated
# B2: cryptogein Val84Phe mutant (ligand)
# chain: B1 chain with V65F
# modifications: fluorescein isothiocyanate (FITC) label, site not stated
# B3: cryptogein Leu41Phe/Val84Phe double mutant (ligand)
# chain: B1 chain with L42F, V85F
# modifications: fluorescein isothiocyanate (FITC) label, site not stated
# B4: cryptogein Leu41Phe mutant (ligand)
# chain: B1 chain with L42F
# modifications: fluorescein isothiocyanate (FITC) label, site not stated
# What was measured:
# [1] = target: cryptogein (wt cryptogein, Cry) (Phytophthora cryptogea, UniProt P15570, L61F); test: biochemical
# [2] = target: cryptogein (wt cryptogein, Cry) (Phytophthora cryptogea, UniProt P15570); test: biochemical
# [3] = target: high-affinity binding site on the tobacco plasma membrane (tobacco (endogenous in Xanthi cell suspension)); test: filter binding of FITC-labelled ligand to plasma membrane preparations
Molecule,amount of bound molecules at 10 nM (pmol mg^−1 plasma membrane proteins) [3],amount of bound molecules at 30 nM (pmol mg^−1 plasma membrane proteins) [3],also measured
CC(C)[C@@H](C)/C=C/[C@@H](C)[C@H]1CC[C@H]2C3=CC=C4C[C@@H](O)CC[C@]4(C)C3=CC[C@]12C [DHE],–,–,Kd [1]: 850 ± 50 nM; Kd [2]: 560 ± 40 nM
B1,57.4,–,–
B2,55.3,–,–
B3,–,16.9,–
B4,–,14.4,–

# Source: PMC3295402 (Journal of Experimental Botany, 2012)
